Measurements published in paper doi:10.1101/2024.03.08.584184.

Target: cGAS (Homo sapiens, UniProt Q8N884 1-522)
Test: EMSA

cGAS, sequence (Q8N884 whole entry): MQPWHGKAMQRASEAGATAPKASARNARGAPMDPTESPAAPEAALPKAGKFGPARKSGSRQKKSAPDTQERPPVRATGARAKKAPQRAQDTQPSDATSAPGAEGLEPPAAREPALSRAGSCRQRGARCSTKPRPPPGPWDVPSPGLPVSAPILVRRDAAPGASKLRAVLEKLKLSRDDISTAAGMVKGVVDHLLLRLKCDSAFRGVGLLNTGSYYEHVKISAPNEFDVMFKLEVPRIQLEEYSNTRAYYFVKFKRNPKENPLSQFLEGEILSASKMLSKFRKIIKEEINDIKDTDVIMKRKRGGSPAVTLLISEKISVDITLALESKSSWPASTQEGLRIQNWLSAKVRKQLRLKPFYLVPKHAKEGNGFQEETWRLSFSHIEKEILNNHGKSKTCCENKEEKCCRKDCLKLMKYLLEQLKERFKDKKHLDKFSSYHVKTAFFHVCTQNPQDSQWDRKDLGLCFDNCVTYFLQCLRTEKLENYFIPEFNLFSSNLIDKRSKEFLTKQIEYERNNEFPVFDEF

B1: 70bp Oligo 2 (dsDNA)
DNA 1: GGCAAGCAGGCCTTCTCATGCGTATATCAACGTGTCCGTTTGAGATATCAGTGTTCTCTTTCCCGGTTAA
DNA 2: TTAACCGGGAAAGAGAACACTGATATCTCAAACGGACACGTTGATATACGCATGAGAAGGCCTGCTTGCC
- binding result: binds
